Test results as given in paper PMC11886768 (2025).

B1: CRY1 (third protein in the mammalian three-hybrid assay) [Arabidopsis] / E-COP1 [Arabidopsis] (parent complex)
chain 1: MSGSVSGCGSGGCSIVWFRRDLRVEDNPALAAAVRAGPVIALFVWAPEEEGHYHPGRVSRWWLKNSLAQLDSSLRSLGTCLITKRSTDSVASLLDVVKSTGASQIFFNHLYDPLSLVRDHRAKDVLTAQGIAVRSFNADLLYEPWEVTDELGRPFSMFAAFWERCLSMPYDPESPLLPPKKIISGDVSKCVADPLVFEDDSEKGSNALLARAWSPGWSNGDKALTTFINGPLLEYSKNRRKADSATTSFLSPHLHFGEVSVRKVFHLVRIKQVAWANEGNEAGEESVNLFLKSIGLREYSRYISFNHPYSHERPLLGHLKFFPWAVDENYFKAWRQGRTGYPLVDAGMRELWATGWLHDRIRVVVSSFFVKVLQLPWRWGMKYFWDTLLDADLESDALGWQYITGTLPDSREFDRIDNPQFEGYKFDPNGEYVRRWLPELSRLPTDWIHHPWNAPESVLQAAGIELGSNYPLPIVGLDEAKARLHEALSQMWQLEAASRAAIENGSEEGLGDSAEVEEAPIEFPRDITMEETEPTRLNPNRRYEDQMVPSITSSLIRPEEDEESSLNLRNSVGDSRAEVPRNMVNTNQAQQRRAEPASNQVTAMIPEFNIRIVAESTEDSTAESSSSGRRERSGGIVPEWSPGYSEQFPSEENGIGGGSTTSSYLQNHHEILNWRRLSQTG
chain 2: MEEISTDPVVPAVKPDPRTSSVGEGANRHENDDGGSGGSEIGAPDLDKDLLCPICMQIIKDAFLTACGHSFCYMCIITHLRNKSDCPCCSQHLTNNQLYPNFLLDKLLKKTSARHVSKTASPLDQFREALQRGCDVSIKEVDNLLTLLAERKRKMEQEEAERNMQILLDFLHCLRKQKVDELNEVQTDLQYIKEDINAVERHRIDLYRARDRYSVKLRMLGDDPSTRNAWPHEKNQIGFNSNSLSIRGGNFVGNYQNKKVEGKAQGSSHGLPKKDALSGSDSQSLNQSTVSMARKKRIHAQFNDLQECYLQKRRQLADQPNSKQENDKSVVRREGYSNGLADFQSVLTTFTRYSRLRVIAEIRHGDIFHSANIVSSIEFDRDDELFATAGVSRCIKVFDFSSVVNEPADMQCPIVEMSTRSKLSCLSWNKHEKNHIASSDYEGIVTVWDVTTRQSLMEYEEHEKRAWSVDFSRTEPSMLVSGSDDCKVKVWCTRQEASVINIDMKANICCVKYNPGSSNYIAVGSADHHIHYYDLRNISQPLHVFSGHKKAVSYVKFLSNNELASASTDSTLRLWDVKDNLPVRTFRGHTNEKNFVGLTVNSEYLACGSETNEVYVYHKEITRPVTSHRFGSPDMDDAEEEAGSYFISAVCWKSDSPTMLTANSQGTIKVLVLAA

Variants of: B1
Test: luciferase complementation imaging (LCI); transfected N. benthamiana leaves, n = 14, CCD camera; value is the mean ('+'); median about 0.44, box about 0.22-0.68; parent: 1; read off a plot
chain 1 V548A, chain 1 P549A was tested, and the ratio to parent was roughly 0.43.
